# T1: solid-phase desmoglein 1 (Homo sapiens, UniProt Q02413)
# T1 construct: purchased MBL
# T1 sequence (Q02413 50-1049): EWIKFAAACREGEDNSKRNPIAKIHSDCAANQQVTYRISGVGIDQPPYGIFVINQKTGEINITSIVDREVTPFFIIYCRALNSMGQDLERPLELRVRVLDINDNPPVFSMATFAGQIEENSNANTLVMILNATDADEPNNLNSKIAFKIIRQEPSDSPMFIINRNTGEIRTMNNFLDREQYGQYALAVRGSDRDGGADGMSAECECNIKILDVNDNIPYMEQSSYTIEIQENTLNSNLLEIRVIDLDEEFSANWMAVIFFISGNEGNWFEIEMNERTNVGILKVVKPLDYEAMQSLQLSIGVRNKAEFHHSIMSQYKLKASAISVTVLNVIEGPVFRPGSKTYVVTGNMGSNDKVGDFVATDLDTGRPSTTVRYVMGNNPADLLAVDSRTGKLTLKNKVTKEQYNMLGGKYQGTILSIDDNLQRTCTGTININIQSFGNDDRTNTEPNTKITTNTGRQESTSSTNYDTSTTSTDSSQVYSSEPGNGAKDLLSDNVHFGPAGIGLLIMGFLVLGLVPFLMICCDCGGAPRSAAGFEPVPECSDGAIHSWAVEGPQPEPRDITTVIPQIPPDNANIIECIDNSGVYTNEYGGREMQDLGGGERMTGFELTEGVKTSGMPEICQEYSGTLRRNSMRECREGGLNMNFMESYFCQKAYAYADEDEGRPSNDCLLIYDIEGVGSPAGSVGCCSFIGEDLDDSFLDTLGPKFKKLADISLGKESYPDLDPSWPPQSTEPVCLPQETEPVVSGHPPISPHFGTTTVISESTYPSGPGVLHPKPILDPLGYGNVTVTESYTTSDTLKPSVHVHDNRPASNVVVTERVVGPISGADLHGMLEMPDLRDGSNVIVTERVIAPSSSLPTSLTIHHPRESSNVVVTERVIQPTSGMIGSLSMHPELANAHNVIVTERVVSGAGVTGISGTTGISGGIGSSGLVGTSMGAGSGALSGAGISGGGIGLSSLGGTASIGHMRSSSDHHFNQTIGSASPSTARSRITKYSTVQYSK
# T2: solid-phase tTG (Homo sapiens, UniProt P21980)
# T2 construct: purchased Eurospital
# T2 sequence (P21980 1-687): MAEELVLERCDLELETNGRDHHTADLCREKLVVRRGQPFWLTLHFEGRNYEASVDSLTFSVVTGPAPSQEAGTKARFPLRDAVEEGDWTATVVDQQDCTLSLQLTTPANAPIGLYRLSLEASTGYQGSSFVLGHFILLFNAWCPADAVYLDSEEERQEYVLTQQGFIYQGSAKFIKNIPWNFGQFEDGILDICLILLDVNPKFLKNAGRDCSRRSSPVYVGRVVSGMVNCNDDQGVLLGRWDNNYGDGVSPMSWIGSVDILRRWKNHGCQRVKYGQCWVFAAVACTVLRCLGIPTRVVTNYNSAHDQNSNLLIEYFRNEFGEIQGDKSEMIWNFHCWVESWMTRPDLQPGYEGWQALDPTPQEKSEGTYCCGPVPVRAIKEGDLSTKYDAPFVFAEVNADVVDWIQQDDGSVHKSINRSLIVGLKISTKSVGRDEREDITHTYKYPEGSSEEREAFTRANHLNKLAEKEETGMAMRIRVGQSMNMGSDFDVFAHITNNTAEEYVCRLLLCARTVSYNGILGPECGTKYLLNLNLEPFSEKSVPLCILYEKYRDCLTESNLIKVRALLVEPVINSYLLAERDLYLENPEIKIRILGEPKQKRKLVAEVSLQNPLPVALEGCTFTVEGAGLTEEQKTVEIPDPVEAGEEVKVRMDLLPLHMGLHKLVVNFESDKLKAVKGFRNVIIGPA
# B1: human recombinant tTG: commercially available recombinant human tissue transglutaminase used as competitor (protein, UniProt P21980 2-687, looked up)
# Protein-glutamine …: AEELVLERCDLELETNGRDHHTADLCREKLVVRRGQPFWLTLHFEGRNYEASVDSLTFSVVTGPAPSQEAGTKARFPLRDAVEEGDWTATVVDQQDCTLSLQLTTPANAPIGLYRLSLEASTGYQGSSFVLGHFILLFNAWCPADAVYLDSEEERQEYVLTQQGFIYQGSAKFIKNIPWNFGQFEDGILDICLILLDVNPKFLKNAGRDCSRRSSPVYVGRVVSGMVNCNDDQGVLLGRWDNNYGDGVSPMSWIGSVDILRRWKNHGCQRVKYGQCWVFAAVACTVLRCLGIPTRVVTNYNSAHDQNSNLLIEYFRNEFGEIQGDKSEMIWNFHCWVESWMTRPDLQPGYEGWQALDPTPQEKSEGTYCCGPVPVRAIKEGDLSTKYDAPFVFAEVNADVVDWIQQDDGSVHKSINRSLIVGLKISTKSVGRDEREDITHTYKYPEGSSEEREAFTRANHLNKLAEKEETGMAMRIRVGQSMNMGSDFDVFAHITNNTAEEYVCRLLLCARTVSYNGILGPECGTKYLLNLNLEPFSEKSVPLCILYEKYRDCLTESNLIKVRALLVEPVINSYLLAERDLYLENPEIKIRILGEPKQKRKLVAEVSLQNPLPVALEGCTFTVEGAGLTEEQKTVEIPDPVEAGEEVKVRMDLLPLHMGLHKLVVNFESDKLKAVKGFRNVIIGPA
# Experiments:
# solid-phase desmoglein 1 = target: T1, solid-phase desmoglein 1; experiment: Competitive ELISA with desmoglein 1-coated plates; assay type: binding; settings: liquid-phase competitor, 0.6-20 μg/ml
# Procedure: Desmoglein 1-coated plates were purchased from MBL (Woburn, Mass., United States). Serum samples in diluting buffer (serum dilution ranged from 1:400 to 1:800 corresponding to 50% maximal binding to solid-phase desmoglein 1) were pre-incubated with increasing concentrations of competitors (synthetic peptides and recombinant human tTG: 20, 10, 5, 2.5, 1.25, 0.6 μg/ml) for 1 h at 37° C. The mixture was then transferred to the desmoglein-coated plate. In this particular assay, the authors used the desmoglein 1 peptide as liquid-phase competitor, since the only liquid-phase recombinant desmoglein 1 available is an Fc chimera.
# solid-phase tTG = target: T2, solid-phase tTG; experiment: Competitive ELISA using tTG-coated plates; assay type: binding; settings: pre-incubation with competitor, 0.6-20 μg/ml
# Procedure: (§1) The direct and competitive ELISA for antibody binding to the synthetic peptides have already been described elsewhere. Briefly, the synthetic peptides were used at a concentration of 20 μg/ml in PBS to coat polystyrene plates (Nunc, Roskilde, Denmark). Plates were then blocked for 1 h with PBS 3% BSA. Serum samples were diluted in diluting buffer (PBS 1% BSA 0.05% Tween) and incubated on the plates for 3 h at room temperature. Plates were then washed twice with PBS 1% Tween and twice with PBS. Bound antibodies were detected by an alkaline phosphatase-conjugated anti-human IgA antiserum (1:1,000 in diluting buffer) (Sigma, St. Louis, Mo., United States) or with an alkaline phosphatase-conjugated anti-human IgG antiserum (1:2,000 in diluting buffer) (Sigma). In some experiments, an alkaline phosphatase-conjugated anti-rabbit IgG antiserum (1:2,000 in diluting buffer) (Sigma) was also used. The secondary reagents were incubated overnight at 4° C.; plates were then washed twice with PBS/Tween and twice with PBS. The alkaline phosphatase substrate (Sigma) diluted in bicarbonate buffer was then added to the wells and the plates read after 30 min or 1 h at a spectrophotometer set at 450 nm. For the competitive assay, the amount of antibody (or serum dilution) that gave 50% of the maximum binding to the antigen on the solid phase was pre-incubated for 1 h at 37° C. with different amounts of competitors (20, 10, 5, 2.5, 1.25, 0.6 μg/ml) or buffer (diluting buffer as the one used in the direct ELISA) and then transferred to the antigen-coated plates. The assay was then carried on as the direct binding assay. For the competitive ELISAs presented in this paper in particular, the following experimental conditions were used. (1) Competitive ELISA using tTG-coated plates. Plates coated with human recombinant tTG were purchased from Eurospital. Serum samples in diluting buffer (serum dilution ranged from 1:400 to 1:1,600 corresponding to 50% maximal binding to solid-phase tTG) were pre-incubated with increasing concentration of competitors (synthetic peptides or recombinant human tTG: 20, 10, 5, 2.5, 1.25, 0.6 μg/ml) for 1 h at 37° C. The mixture was then transferred to the tTG-coated plate. The remainder of the assay was performed as the direct binding assay. Results are expressed as: […]
# solid-phase HSP60 = target: T3, solid-phase HSP60 (Homo sapiens, UniProt P10809); experiment: Competitive ELISA on solid-phase HSP60; assay type: binding; settings: pre-incubation with competitor
# T3 construct: purchased Stressgen
# Procedure: as §1, with “Serum samples in diluting buffer (serum dilution ranged from 1:400 to 1:1,600 corresponding to 50% maximal binding to solid-phase tTG) were pre-incubated with increasing concentration of competitors (synthetic peptides or recombinant human tTG: 20, 10, 5, 2.5, 1.25, 0.6 μg/ml) for 1 h at 37° C. The mixture was then transferred to the tTG-coated plate. The remainder of the assay was performed as the direct binding assay.” left out
# solid-phase TLR4 peptide = target: T4, solid-phase TLR4 peptide (Homo sapiens, UniProt O00206); experiment: Competitive ELISA on solid-phase TLR4 peptide; assay type: binding; settings: liquid-phase competitor
# T4 construct: made in house; host or cells: chemical solid-phase synthesis (FMOC)
# Procedure: as §1
# [1] = system: T84 human intestinal epithelial cell line; experiment: [3H] mannitol flux across T84 monolayers; assay type: cell-based; settings: pre-incubation of antibodies with the substance; T84, 3 h
# Procedure: T84 cells obtained from the American Type Culture Collection (Manassas, Va., United States) were grown in a 5% CO2 humidified incubator at 37° C. on 162-cm^2 flasks (Corning Costar, Acton, Mass., United States) with media containing a 1:1 mixture of Ham's F-12 nutrient mixture and DMEM supplemented with 6% heat-inactivated fetal bovine serum, 15 mM HEPES, 14.3 mM NaHCO3, and antibiotics (penicillin and streptomycin)-antimycotics (pH 7.4). Cells were passaged weekly on reaching confluence. For experiments, cells were plated onto collagen-coated permeable supports, where they were fed every 3 d and used from days 7-14 (within fifth passage).
# Confluent T84 monolayers grown on 4.7 cm^2 transwell inserts were incubated in HEPES-phosphate-buffered Ringer solution (HPBR, containing 135 mM NaCl, 5 mM KCl, 3.33 mM NaHPO4, 1 mM CaCl2, 1 mM MgCl2, 10 mM glucose, and 5 mM HEPES [pH 7.4]) for 30 min, followed by treatment with basolaterally applied Igs (20 μg/ml) in the presence of [^3H] mannitol (5 μCi/ml) in the basolateral compartment. Apical solution was sampled every 30 min (to detect the presence of [^3H] mannitol) and exchanged with fresh HPBR buffer solution for a total of 4 h. The collected apical samples were placed in vials containing scintillation fluid and analyzed for the presence of [^3H] mannitol by scintillation counter.
# Human monocytes = experiment: Stimulation of monocytes, FACS analysis of activation markers; assay type: cell-based; settings: monocytes incubated overnight, antibody preparations 20 μg/ml, LPS 1 μg/ml
# Procedure: Human monocytes were isolated from normal donors and incubated overnight at a density of 1×10^6 cells/ml in RPMI 10% FCS in 24-well plates in the presence of the antibody preparations (20 μg/ml) or lipopolysaccharide (LPS) (1 μg/ml) (Sigma). The medium used and all the antibody preparations were treated with Detoxi-gel endotoxin-removing columns (Pierce). Presence of LPS contaminants in the antibody preparation and buffers as well as in the culture medium was assessed using the HEK-Blue LPS Detection Kit (Invivogen); all the antibody preparation and buffers used throughout the study were devoided of LPS contaminants. Monocytes were then used for fluorescence-activated cell sorting (FACS) analysis.
# Cells were incubated with R-phycoerythrin directly conjugated anti-CD1, -CD83, and -CD86 antibodies for 30 min on ice. […] Samples were run on a FACScan flow cytometer (Becton Dickinson, Mountain View, Calif., United States). All the antibodies used were purchased from Immunotech (Marseille, France).
# T3 sequence (P10809 27-573): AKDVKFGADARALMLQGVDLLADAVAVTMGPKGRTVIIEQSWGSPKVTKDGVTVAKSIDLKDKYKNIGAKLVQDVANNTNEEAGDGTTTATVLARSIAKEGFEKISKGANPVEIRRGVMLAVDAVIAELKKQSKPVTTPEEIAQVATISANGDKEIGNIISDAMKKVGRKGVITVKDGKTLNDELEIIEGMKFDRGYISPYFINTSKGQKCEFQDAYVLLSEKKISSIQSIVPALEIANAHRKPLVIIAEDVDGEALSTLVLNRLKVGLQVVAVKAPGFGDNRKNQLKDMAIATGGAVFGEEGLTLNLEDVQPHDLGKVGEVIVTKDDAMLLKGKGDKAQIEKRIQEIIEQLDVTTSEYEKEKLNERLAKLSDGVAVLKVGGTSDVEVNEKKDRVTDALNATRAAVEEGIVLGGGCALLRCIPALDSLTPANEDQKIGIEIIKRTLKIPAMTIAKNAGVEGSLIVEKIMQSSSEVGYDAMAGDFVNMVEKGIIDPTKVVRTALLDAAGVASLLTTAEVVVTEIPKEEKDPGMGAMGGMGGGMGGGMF
Molecule,inhibition of binding of anti-celiac peptide antibodies to solid-phase desmoglein 1 (solid-phase desmoglein 1),inhibition of antibody binding to solid-phase tTG by liquid-phase competitor (solid-phase tTG),inhibition of antibody binding to solid-phase HSP60 by liquid-phase competitor (solid-phase HSP60),inhibition of binding of anti-celiac peptide antibodies to solid-phase TLR4 peptide (solid-phase TLR4 peptide),blocking of the effect of anti-celiac peptide antibodies on cell permeability [1],"Percentage of positive cells, CD83 (Human monocytes; medium alone 9.4%) [%]","Percentage of positive cells, CD40 (Human monocytes; medium alone 62.3%) [%]"
LSSLGGTASIGH [desmoglein 1 peptide],inhibited,,,,,,
RIRVGQSMNMGS [tTG peptide],,inhibited,inhibited,,,,
VIQVGGSNVLDI [VP-7 peptide],inhibited,inhibited,inhibited,Inhibition,,,
VLKMAGNSFQEN [TLR4 peptide],inhibited,,,Inhibition,,,
VTLPKDSDVELP [irrelevant control peptide],,not,,not,not,,
VVKVGGSSSLGW [celiac peptide],inhibited,inhibited,inhibited,Inhibition,blocked,,
lipopolysaccharide [LPS],,,,,,45,89
B1,inhibited,,,,blocked,,
